Patent US10919943B2, “Mutant proteins enabling agrochemical control of plant gene expression” (The Regents of the University of California, priority 2016, dated 2021)
Changes are numbered by the printed parent chain. Numbers in names are those of the source.

T1: PYR1 (Arabidopsis thaliana, UniProt O49686)
T1 construct: expressed in transfected cells; host or cells: S. cerevisiae strain Y190
T1 sequence (O49686 1-191): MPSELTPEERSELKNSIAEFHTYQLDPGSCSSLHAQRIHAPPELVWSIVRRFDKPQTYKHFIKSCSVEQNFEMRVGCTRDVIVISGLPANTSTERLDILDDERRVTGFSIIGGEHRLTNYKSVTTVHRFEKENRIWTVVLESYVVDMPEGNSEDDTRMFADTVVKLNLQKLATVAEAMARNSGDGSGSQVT

B1: I383H: HAB1 mutant (protein, UniProt Q9CAJ0 23-511, looked up, variant I383H)
Protein phosphatase 2C 16: SPVEITQLKNVTDAADLLSDSENQSFCNGGTECTMEDVSELEEVGEQDLLKTLSDTRSGSSNVFDEDDVLSVVEDNSAVISEGLLVVDAGSELSLSNTAMEIDNGRVLATAIIVGESSIEQVPTAEVLIAGVNQDTNTSEVVIRLPDENSNHLVKGRSVYELDCIPLWGTVSIQGNRSEMEDAFAVSPHFLKLPIKMLMGDHEGMSPSLTHLTGHFFGVYDGHGGHKVADYCRDRLHFALAEEIERIKDELCKRNTGEGRQVQWDKVFTSCFLTVDGEIEGKIGRAVVGSSDKVLEAVASETVGSTAVVALVCSSHIVVSNCGDSRAVLFRGKEAMPLSVDHKPDREDEYARIENAGGKVHQWQGARVFGVLAMSRSIGDRYLKPYVIPEPEVTFMPRSREDECLILASDGLWDVMNNQEVCEIARRRILMWHKKNGAPPLAERGKGIDPACQAAADYLSMLALQKGSKDNISIIVIDLKAQRKFKTRT
B2: R389W: HAB1 mutant (protein, UniProt Q9CAJ0 23-511, looked up, variant R389W)
Protein phosphatase 2C 16: B1 Protein phosphatase 2C 16 with H361I, R367W
B3: W385R: HAB1 mutant (protein, UniProt Q9CAJ0 23-511, looked up, variant W385R)
Protein phosphatase 2C 16: B1 Protein phosphatase 2C 16 with H361I, W363R
B4: W385H: HAB1 mutant (protein, UniProt Q9CAJ0 23-511, looked up, variant W385H)
Protein phosphatase 2C 16: B1 Protein phosphatase 2C 16 with H361I, W363H
B5: R389T: HAB1 mutant (protein, UniProt Q9CAJ0 23-511, looked up, variant R389T)
Protein phosphatase 2C 16: B1 Protein phosphatase 2C 16 with H361I, R367T
B6: R389R: HAB1, x printed at the wild-type residue; see doubts (protein, UniProt Q9CAJ0 23-511, looked up)
Protein phosphatase 2C 16: B1 Protein phosphatase 2C 16 with H361I
B7: R389L: HAB1 mutant (protein, UniProt Q9CAJ0 23-511, looked up, variant R389L)
Protein phosphatase 2C 16: B1 Protein phosphatase 2C 16 with H361I, R367L
B8: W385E: HAB1 mutant (protein, UniProt Q9CAJ0 23-511, looked up, variant W385E)
Protein phosphatase 2C 16: B1 Protein phosphatase 2C 16 with H361I, W363E
B9: I383K: HAB1 mutant (protein, UniProt Q9CAJ0 23-511, looked up, variant I383K)
Protein phosphatase 2C 16: B1 Protein phosphatase 2C 16 with H361K
B10: R389V: HAB1 mutant (protein, UniProt Q9CAJ0 23-511, looked up, variant R389V)
Protein phosphatase 2C 16: B1 Protein phosphatase 2C 16 with H361I, R367V
B11: W385A: HAB1 mutant (protein, UniProt Q9CAJ0 23-511, looked up, variant W385A)
Protein phosphatase 2C 16: B1 Protein phosphatase 2C 16 with H361I, W363A
B12: W385D: HAB1 mutant (protein, UniProt Q9CAJ0 23-511, looked up, variant W385D)
Protein phosphatase 2C 16: B1 Protein phosphatase 2C 16 with H361I, W363D
B13: W385V: HAB1 mutant (protein, UniProt Q9CAJ0 23-511, looked up, variant W385V)
Protein phosphatase 2C 16: B1 Protein phosphatase 2C 16 with H361I, W363V
B14: W385Q: HAB1 mutant (protein, UniProt Q9CAJ0 23-511, looked up, variant W385Q)
Protein phosphatase 2C 16: B1 Protein phosphatase 2C 16 with H361I, W363Q
B15: W385P: HAB1 mutant (protein, UniProt Q9CAJ0 23-511, looked up, variant W385P)
Protein phosphatase 2C 16: B1 Protein phosphatase 2C 16 with H361I, W363P
B16: W385Y: HAB1 mutant (protein, UniProt Q9CAJ0 23-511, looked up, variant W385Y)
Protein phosphatase 2C 16: B1 Protein phosphatase 2C 16 with H361I, W363Y
B17: R389C: HAB1 mutant (protein, UniProt Q9CAJ0 23-511, looked up, variant R389C)
Protein phosphatase 2C 16: B1 Protein phosphatase 2C 16 with H361I, R367C
B18: R389M: HAB1 mutant (protein, UniProt Q9CAJ0 23-511, looked up, variant R389M)
Protein phosphatase 2C 16: B1 Protein phosphatase 2C 16 with H361I, R367M
B19: W385L: HAB1 mutant (protein, UniProt Q9CAJ0 23-511, looked up, variant W385L)
Protein phosphatase 2C 16: B1 Protein phosphatase 2C 16 with H361I, W363L
B20: W385T: HAB1 mutant (protein, UniProt Q9CAJ0 23-511, looked up, variant W385T)
Protein phosphatase 2C 16: B1 Protein phosphatase 2C 16 with H361I, W363T
B21: W385S: HAB1 mutant (protein, UniProt Q9CAJ0 23-511, looked up, variant W385S)
Protein phosphatase 2C 16: B1 Protein phosphatase 2C 16 with H361I, W363S
B22: R389Q: HAB1 mutant (protein, UniProt Q9CAJ0 23-511, looked up, variant R389Q)
Protein phosphatase 2C 16: B1 Protein phosphatase 2C 16 with H361I, R367Q
B23: W385G: HAB1 mutant (protein, UniProt Q9CAJ0 23-511, looked up, variant W385G)
Protein phosphatase 2C 16: B1 Protein phosphatase 2C 16 with H361I, W363G
B24: W385M: HAB1 mutant (protein, UniProt Q9CAJ0 23-511, looked up, variant W385M)
Protein phosphatase 2C 16: B1 Protein phosphatase 2C 16 with H361I, W363M
B25: W385F: HAB1 mutant (protein, UniProt Q9CAJ0 23-511, looked up, variant W385F)
Protein phosphatase 2C 16: B1 Protein phosphatase 2C 16 with H361I, W363F
B26: W385K: HAB1 mutant (protein, UniProt Q9CAJ0 23-511, looked up, variant W385K)
Protein phosphatase 2C 16: B1 Protein phosphatase 2C 16 with H361I, W363K
B27: R389A: HAB1 mutant (protein, UniProt Q9CAJ0 23-511, looked up, variant R389A)
Protein phosphatase 2C 16: B1 Protein phosphatase 2C 16 with H361I, R367A
B28: W385I: HAB1 mutant (protein, UniProt Q9CAJ0 23-511, looked up, variant W385I)
Protein phosphatase 2C 16: B1 Protein phosphatase 2C 16 with H361I, W363I
B29: W385N: HAB1 mutant (protein, UniProt Q9CAJ0 23-511, looked up, variant W385N)
Protein phosphatase 2C 16: B1 Protein phosphatase 2C 16 with H361I, W363N
B30: W385C: HAB1 mutant (protein, UniProt Q9CAJ0 23-511, looked up, variant W385C)
Protein phosphatase 2C 16: B1 Protein phosphatase 2C 16 with H361I, W363C
B31: R389P: HAB1 mutant (protein, UniProt Q9CAJ0 23-511, looked up, variant R389P)
Protein phosphatase 2C 16: B1 Protein phosphatase 2C 16 with H361I, R367P

Target: T1, PYR1
Experiment: Yeast two hybrid of pACT-HAB1 site saturation mutants with pBD-PYR1 on 10 μM ABA, β-galactosidase staining
Assay type: cell-based
Set-up: key: x: Mutations in HAB1 that disrupt HAB1 interaction with PYR1
Conditions: S. cerevisiae Y190, 10 μM ABA; dead = lack of detectable staining in comparison to wild type control
Description: To systematically define mutations in HAB1 that disrupt its binding to PYR1, we used site saturation mutagenesis to create a collection all possible single amino acid substitutions in 20 residues lining the PYR1 binding interface, and then assayed the ability of each mutant to bind PYR1 using the yeast two hybrid assay described above. We targeted the following residues for mutagenesis: R199, 5200, E201, E203, H245, G246, G247, S322, E323, T324, K381, I383, Q384, W385, Q386, R389, F391, G392, V393, and Y404. To create the collection of mutations, mutagenic “NNK” site directed mutagenesis primers were synthesized for each of the 20 positions and the primers used in QuickChange site-directed mutagenesis reactions using a previously described pACT-HAB1 template (Park et al., 2009). We note that this clone uses a HAB1 cDNA lacking its three N-terminal amino acids. The reaction products were digested with DpnI, and transformed into competent Escherichia coli DH5α cells and plasmid DNA for 96 colonies per site was isolated using Bioneer AccuPrep® Plasmid Mini Extraction Kit (Alameda, Calif.) and sequenced to identify mutants. This process identified most of the 19 desired mutations per target site; the remaining mutations were constructed directly using specific mutagenic primers. To interrogate the effects of the mutations on PYR1-HAB1 interactions, the mutant clones were individually transformed into S. cerevisiae strain Y190 containing pBD-PYR1 (Park et al., 2009). Yeast transformants were selected for the presence of plasmids on selective SD (-Leu,-Trp) plates and then spotted onto SD (-Leu,-Trp) agar plates supplemented with 10 μM ABA. After incubating the test plates at 30° C. for two days, the colonies were lysed with chloroform and stained to reveal […] expression levels. “Dead” mutants were defined by lack of detectable staining in comparison to a wild type pBD-PYR1/pACT-HAB1 control. This screening effort defined 163 mutations that disrupt the ABA-induced PYR1/HAB1 interaction (Table 2).

| Molecule | Mutations in HAB1 that disrupt HAB1 interaction with PYR1 |
| --- | --- |
| B1 | x |
| B2 | x |
| B3 | x |
| B4 | x |
| B5 | x |
| B6 | x |
| B7 | x |
| B8 | x |
| B9 | x |
| B10 | x |
| B11 | x |
| B12 | x |
| B13 | x |
| B14 | x |
| B15 | x |
| B16 | x |

| Molecule | Mutations in HAB1 that disrupt HAB1 interaction with PYR1 |
| --- | --- |
| B17 | x |
| B18 | x |
| B19 | x |
| B20 | x |
| B21 | x |
| B22 | x |
| B23 | x |
| B24 | x |
| B25 | x |
| B26 | x |
| B27 | x |
| B28 | x |
| B29 | x |
| B30 | x |
| B31 | x |
